Experimental data published in patent US20230201364A1 (BRIGHT PEAK THERAPEUTICS, published 2023).

What was measured:
[1] = molecular target: T1, recombinant biotinylated human Fc gamma receptor IIIa (FcγRIIIa/CD16) (human, UniProt P08637 17-208, limits assumed, biotinylated); assay: AlphaLISA competition; test molecule titrated against human IgG Fc acceptor beads for biotinylated FcγRIIIa
T1 construct: Allotype given inconsistently (V158 against 176P/F158); also called FcgRIIIa; FcγR3a
Protocol: (§1) The interaction of the unmodified and of conjugated antibodies with human Fc gamma receptors I (FcγRI/CD64), with human Fc gamma receptors II (FcγRIIa/CD32), and with low affinity human Fc gamma receptors III FcγR3a/CD16 V158 were measured using the AlphaLISA® Human FcγR1/CD64 (AL3081C), FcγRIIa/CD32a 167H (AL3086C), and FcγRIII/CD16 176P/F158 (AL3471HV) binding Kits respectively (Perkin Elmer, Schwerzenbach, Switzerland).
(§2) After 90 min at 23° C. in the dark, AlphaLISA® signal was measured on an EnSpire plate reader (Excitation at 680 nm, Emission at 615 nm) from Perkin Elmer (Schwerzenbach, Switzerland).

[2] = molecular target: T2, Fc gamma receptor IIb (FcgRIIb, CD32b) (human, UniProt P31994 46-217, limits assumed); assay: AlphaLISA competition or analogous assay for FcγRIIb (not described)
T2 construct: the kit is not described; also called FcRIIb
T2 sequence (looked up): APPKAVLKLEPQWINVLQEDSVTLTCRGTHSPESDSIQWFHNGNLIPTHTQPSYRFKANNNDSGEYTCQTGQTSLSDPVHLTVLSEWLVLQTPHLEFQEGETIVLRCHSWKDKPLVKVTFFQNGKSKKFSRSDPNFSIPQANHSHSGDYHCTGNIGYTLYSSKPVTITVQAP

[3] = molecular target: T3, recombinant biotinylated human Fc gamma receptor I (FcγRI/CD64) (human, UniProt P12314 16-288, limits assumed, biotinylated); assay: AlphaLISA competition; test molecule titrated against human IgG Fc acceptor beads for biotinylated FcγRI
T3 construct: also called FcgRI
Protocol: as §1, §2

[4] = molecular target: T4, recombinant biotinylated human neonatal Fc receptor (FcRn) (human, UniProt P55899 24-297; P61769 21-119, limits assumed, biotinylated); assay: AlphaLISA competition at pH 6; test molecule titrated against human IgG acceptor beads for biotinylated human FcRn
T4 construct: also called human FcRn
Protocol: The interaction of the unmodified and of conjugated anti-PD1 antibodies with the human neonatal Fc receptor (FcRn) at pH 6 was measured using the AlphaLISA Human FcRn Binding Kit (AL3095C) from Perkin Elmer (Schwerzenbach, Switzerland).
After 90 min at 23° C. in the dark, AlphaLISA signal was measured on an EnSpire plate reader (Excitation at 680 nm, Emission at 615 nm) from Perkin Elmer (Schwerzenbach, Switzerland).

[5] = molecular target: T5, CD20 (human, UniProt P11836 1-297, limits assumed); assay: ELISA by a method analogous to the PD-1 ELISA; antigen reagent not described
T5 construct: The CD20 reagent of the ELISA is not described (analogous methods); also called human CD20
T5 sequence: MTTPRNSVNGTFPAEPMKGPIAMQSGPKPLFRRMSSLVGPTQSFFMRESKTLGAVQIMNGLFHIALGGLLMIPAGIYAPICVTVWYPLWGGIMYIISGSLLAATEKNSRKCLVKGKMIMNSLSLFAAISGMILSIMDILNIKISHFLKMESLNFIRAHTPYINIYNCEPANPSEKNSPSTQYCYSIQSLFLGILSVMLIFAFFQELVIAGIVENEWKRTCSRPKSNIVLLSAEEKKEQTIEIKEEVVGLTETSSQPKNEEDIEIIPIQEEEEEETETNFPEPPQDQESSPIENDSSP

[6] = molecular target: T6, recombinant biotinylated human Fc gamma receptor IIa (FcγRIIa/CD32a 167H) (human, UniProt P12318 36-218, limits assumed, biotinylated); assay: AlphaLISA competition; test molecule titrated against human IgG Fc acceptor beads for biotinylated FcγRIIa
T6 construct: also called FcgRIIa
T6 sequence (looked up): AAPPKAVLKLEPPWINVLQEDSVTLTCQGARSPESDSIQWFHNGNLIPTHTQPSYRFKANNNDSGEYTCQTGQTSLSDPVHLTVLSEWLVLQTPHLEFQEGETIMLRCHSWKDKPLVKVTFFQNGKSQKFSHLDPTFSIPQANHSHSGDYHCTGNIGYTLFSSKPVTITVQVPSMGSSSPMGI
Protocol: as §1, §2

- Kd [1]: 133 nM
- Kd [2]: 880 nM
- Kd [3]: 0.233 nM
- Kd [4]: 4.03 nM
- Kd [5]: 0.076 nM
- Kd [6]: 740 nM
B1: CMP-032 (biosimilar Rituximab) (antibody, human IgG1, kappa)
heavy: not shown
light: QIVLSQSPAILSASPGEKVTMTCRASSSVSYIHWFQQKPGSSPKPWIYATSNLASGVPVRFSGSGSGTSYSLTISRVEAEDAATYYCQQWTSNPPTFGGGTKLEIKRTVAAPSVFIFPPSDEQLKSGTASVVCLLNNFYPREAKVQWKVDNALQSGNSQESVTEQDSKDSTYSLSSTLTLSKADYEKHKVYACEVTHQGLSSPVTKSFNRGEC
notes: Unconjugated parent anti-CD20 antibody (DAR 0); A biosimilar/generic rituximab was tested; also called generic rituximab
